According to patent EP4775226A1, “ANTIBODY DRUG CONJUGATE TARGETING GPC3 AND USE THEREOF” (priority 2023, dated 2025):
Positions count from the first letter of the chain named.

B1: Hu 52H5D3B8-8 (antibody, human IgG1, kappa, V domains shown)
VH: EVQLVQSGAEVKKPGASVKVSCKASGYTFTDYEMHWVRQAPGQGLEWMGAIHPGSGGTAYNQKFKGRVTMTADKSISTAYMELSRLRSDDTAVYYCTRFYSYAYWGQGTLVTVSS
VL: DVVMTQTPLSLSVTPGQPASISCRSSQSLVHSNGNTYLQWYLQKPGQSPQLLIYKVSNRFSGVPDRFSGSGSGTDFTLKISRVEAEDVGVYFCSQSIHVPYTFGGGTKVEIKR
notes: also called humanized GPC3 antibody Hu 52H5D3B8-8; GPC3 antibody
B2: Hu 52H5D3B8-8-mcc-AAN-Exatecan (ADC-2) (antibody, human IgG1, kappa, DAR 8.0, V domains shown)
VH: B1 VH
VL: B1 VL
modifications: mcc-AAN-Exatecan on cysteine thiols freed by reduction of interchain disulfide bonds; DAR 8.0 for the whole antibody; positions not given
notes: also called Hu 52H5D3B8-8-MCC-AAN-Exa (ADC-2)
B3: Hu 52H5D3B8-8-mc-AAN-Exatecan (ADC-1) (antibody, human IgG1, kappa, DAR 8.0, V domains shown)
VH: B1 VH
VL: B1 VL
modifications: mc-AAN-Exatecan on cysteine thiols freed by reduction of interchain disulfide bonds; DAR 8.0 for the whole antibody; positions not given
notes: also called Hu 52H5D3B8-8-MC-AAN-Exa (ADC-1)
B4: Hu 52H5D3B8-8-mcc-AAQ-Exatecan (ADC-4) (antibody, human IgG1, kappa, DAR 8.0, V domains shown)
VH: B1 VH
VL: B1 VL
modifications: mcc-AAQ-Exatecan on cysteine thiols freed by reduction of interchain disulfide bonds; DAR 8.0 for the whole antibody; positions not given
notes: also called Hu 52H5D3B8-8-MCC-AAQ-Exa (ADC-4)
B5: Hu 52H5D3B8-8-mc-AAQ-Exatecan (ADC-3) (antibody, human IgG1, kappa, DAR 8.0, V domains shown)
VH: B1 VH
VL: B1 VL
modifications: mc-AAQ-Exatecan on cysteine thiols freed by reduction of interchain disulfide bonds; DAR 8.0 for the whole antibody; positions not given
notes: also called Hu 52H5D3B8-8-MC-AAQ-Exa (ADC-3)
B6: Y035 CDRs with Hu 52H5D3B8-7 FRs (antibody, V domains shown)
VH: B1 VH with G57D, K63R
VL: DVVMTQTPLSLSVTPGQPASISCRSSQSLVHSNGNTYLQWYLQKPGQSPQLLIYKVSNRFSGVPDRFSGSGSGTDFTLKISRVEAEDVGVYYCSQSIYVPYTFGGGTKVEIK
notes: detected with anti-human IgG
B7: Hu 52H5D3B8-7 (antibody, human IgG1, kappa, V domains shown)
VH: B1 VH
VL: B1 VL with F92Y
notes: also called humanized GPC3 antibody Hu 52H5D3B8-7
B8: Hu 52H5D3B8-7-mcc-AAQ-Exatecan (ADC-7) (antibody, human IgG1, kappa, DAR 4.0, V domains shown)
VH: B1 VH
VL: B1 VL with F92Y
modifications: mcc-AAQ-Exatecan on cysteine thiols freed by partial reduction of interchain disulfide bonds; DAR 4.0 for the whole antibody; positions not given
B9: Hu 52H5D3B8-7-mcc-AAQ-Exatecan (ADC-5) (antibody, human IgG1, kappa, DAR 7.9, V domains shown)
VH: B1 VH
VL: B1 VL with F92Y
modifications: mcc-AAQ-Exatecan on cysteine thiols freed by reduction of interchain disulfide bonds; DAR 7.9 for the whole antibody; positions not given
B10: Hu 52H5D3B8-8-mcc-AAQ-Exatecan (ADC-6) (antibody, human IgG1, kappa, DAR 4.0, V domains shown)
VH: B1 VH
VL: B1 VL
modifications: mcc-AAQ-Exatecan on cysteine thiols freed by partial reduction of interchain disulfide bonds; DAR 4.0 for the whole antibody; positions not given
B11: Hu 52H5D3B8-8-MCC-AA-(3-cyano-L-alanine)-Exatecan (ADC-8) (antibody, human IgG1, kappa, DAR 8.0, V domains shown)
VH: B1 VH
VL: B1 VL
modifications: mcc-Ala-Ala-(3-cyano-L-alanine)-Exatecan on cysteine thiols freed by reduction of interchain disulfide bonds; DAR 8.0 for the whole antibody; positions not given
B12: Hu 52H5D3B8-8-MCC-AAAAQ-Exatecan (ADC-9) (antibody, human IgG1, kappa, DAR 8.0, V domains shown)
VH: B1 VH
VL: B1 VL
modifications: mcc-Ala-Ala-Ala-Ala-Gln-Exatecan on cysteine thiols freed by reduction of interchain disulfide bonds; DAR 8.0 for the whole antibody; positions not given
B13: GC33 antibody (Chugai Pharmaceutical) (antibody, V domains shown)
VH: QVQLVQSGAEVKKPGASVKVSCKASGYTFTDYEMHWVRQAPGQGLEWMGALDPKTGDTAYSQKFKGRVTLTADKSTSTAYMELSSLTSEDTAVYYCTRFYSYTYWGQGTLVTVSS
VL: B6 VL with T7S, S12P, Q17E, Q39H, S96N, I97T, Y98H, Y101P, G105Q, V109L
notes: Control antibody; preparation described in US 7919086 B2; detected with anti-human IgG

target: T1, human GPC3 (Glypican-3) (human, UniProt P51654 25-580); experiment: cell-based or functional assay
T1 sequence (P51654 25-580, form in doubt): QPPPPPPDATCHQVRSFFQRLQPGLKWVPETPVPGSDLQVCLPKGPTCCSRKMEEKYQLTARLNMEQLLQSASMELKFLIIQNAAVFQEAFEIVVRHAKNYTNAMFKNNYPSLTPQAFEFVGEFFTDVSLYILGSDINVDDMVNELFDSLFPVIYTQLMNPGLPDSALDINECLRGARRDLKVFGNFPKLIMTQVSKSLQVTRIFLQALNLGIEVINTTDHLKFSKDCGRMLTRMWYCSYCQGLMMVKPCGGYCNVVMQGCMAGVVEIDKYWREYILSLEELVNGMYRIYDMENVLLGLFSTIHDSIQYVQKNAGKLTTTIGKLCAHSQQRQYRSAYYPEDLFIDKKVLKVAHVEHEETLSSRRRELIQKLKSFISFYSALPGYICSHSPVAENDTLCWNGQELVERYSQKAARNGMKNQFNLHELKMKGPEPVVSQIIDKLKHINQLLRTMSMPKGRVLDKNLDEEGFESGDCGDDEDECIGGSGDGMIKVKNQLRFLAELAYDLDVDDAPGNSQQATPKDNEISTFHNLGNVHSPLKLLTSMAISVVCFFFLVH

Row | Binder | Percentage reduction of GPC3 on cell surface (%), Huh7 cells, 0.5 h [%] | Percentage reduction of GPC3 on cell surface (%), Huh7 cells, 1 h [%] | Percentage reduction of GPC3 on cell surface (%), Huh7 cells, 2 h [%]
1 | B1 | 18.6 | 37.1 | 52.8
2 | B2 | 20.5 | 38.2 | 52.2
3 | B3 | 17.9 | 32.9 | 52.2
4 | B4 | 18.9 | 36.2 | 50.2
5 | B5 | 20 | 32.8 | 50.1

target: T1, human GPC3 (Glypican-3); experiment: cell-based or functional assay; remark: another data set of the same source

Row | Binder | Endocytosis on HepG2 cells, EC50 (pHAb dye-labelled secondary antibody) [µg/mL] | Endocytosis on HepG2 cells, Top
6 | B1 | 0.78 | 62400
7 | B6 | 1.11 | 52200
8 | B7 | 0.72 | 58600

target: T1, human GPC3 (Glypican-3); experiment: cell-based or functional assay; remark: another data set of the same source

Row | Binder | EC50 value of cell killing activity in Huh7 cells [µg/mL]
9 | B8 | 0.0279
10 | B2 | 0.00939
11 | B3 | 0.00359
12 | B9 | 0.0164
13 | B10 | 0.0307
14 | B4 | 0.0149
15 | B11 | 0.00734
16 | B12 | 0.00478
17 | B5 | 0.0119

target: T1, human GPC3 (Glypican-3); experiment: FACS on HepG2 cells

Row | Binder | EC50 [nM]
18 | B13 | 0.745
19 | B1 | 0.351
20 | B6 | 0.611
21 | B7 | 0.405

target: T1, human GPC3 (Glypican-3); experiment: FACS on GPC3-CHO-K1 cells (CHO-K1 overexpressing human GPC3)

Row | Binder | EC50 [nM]
22 | B13 | 0.956
23 | B1 | 0.411
24 | B6 | 0.907
25 | B7 | 0.446

target: T1, human GPC3 (Glypican-3); experiment: FACS on Huh-7 cells

Row | Binder | EC50 [nM]
26 | B13 | 0.953
27 | B1 | 0.418
28 | B6 | 0.667
29 | B7 | 0.464

target: T1, human GPC3 (Glypican-3); experiment: FACS on Huh7 liver cancer cells

Row | Binder | EC50 [µg/mL]
30 | B1 | 0.0569
31 | B2 | 0.061
32 | B3 | 0.0673
33 | B4 | 0.0675
34 | B5 | 0.0633
